The target of this data set is dSpCas9 ::KQ KQ insertion (Streptococcus pyogenes) (UniProt Q99ZW2). The experiment in a line: cell_activity. The following applies: TGG PAM; half the GFP-positive fraction of SpCas9.

The source of these data is patent US20200332271.

Chain of UniProt Q99ZW2 (Q99ZW2 whole entry): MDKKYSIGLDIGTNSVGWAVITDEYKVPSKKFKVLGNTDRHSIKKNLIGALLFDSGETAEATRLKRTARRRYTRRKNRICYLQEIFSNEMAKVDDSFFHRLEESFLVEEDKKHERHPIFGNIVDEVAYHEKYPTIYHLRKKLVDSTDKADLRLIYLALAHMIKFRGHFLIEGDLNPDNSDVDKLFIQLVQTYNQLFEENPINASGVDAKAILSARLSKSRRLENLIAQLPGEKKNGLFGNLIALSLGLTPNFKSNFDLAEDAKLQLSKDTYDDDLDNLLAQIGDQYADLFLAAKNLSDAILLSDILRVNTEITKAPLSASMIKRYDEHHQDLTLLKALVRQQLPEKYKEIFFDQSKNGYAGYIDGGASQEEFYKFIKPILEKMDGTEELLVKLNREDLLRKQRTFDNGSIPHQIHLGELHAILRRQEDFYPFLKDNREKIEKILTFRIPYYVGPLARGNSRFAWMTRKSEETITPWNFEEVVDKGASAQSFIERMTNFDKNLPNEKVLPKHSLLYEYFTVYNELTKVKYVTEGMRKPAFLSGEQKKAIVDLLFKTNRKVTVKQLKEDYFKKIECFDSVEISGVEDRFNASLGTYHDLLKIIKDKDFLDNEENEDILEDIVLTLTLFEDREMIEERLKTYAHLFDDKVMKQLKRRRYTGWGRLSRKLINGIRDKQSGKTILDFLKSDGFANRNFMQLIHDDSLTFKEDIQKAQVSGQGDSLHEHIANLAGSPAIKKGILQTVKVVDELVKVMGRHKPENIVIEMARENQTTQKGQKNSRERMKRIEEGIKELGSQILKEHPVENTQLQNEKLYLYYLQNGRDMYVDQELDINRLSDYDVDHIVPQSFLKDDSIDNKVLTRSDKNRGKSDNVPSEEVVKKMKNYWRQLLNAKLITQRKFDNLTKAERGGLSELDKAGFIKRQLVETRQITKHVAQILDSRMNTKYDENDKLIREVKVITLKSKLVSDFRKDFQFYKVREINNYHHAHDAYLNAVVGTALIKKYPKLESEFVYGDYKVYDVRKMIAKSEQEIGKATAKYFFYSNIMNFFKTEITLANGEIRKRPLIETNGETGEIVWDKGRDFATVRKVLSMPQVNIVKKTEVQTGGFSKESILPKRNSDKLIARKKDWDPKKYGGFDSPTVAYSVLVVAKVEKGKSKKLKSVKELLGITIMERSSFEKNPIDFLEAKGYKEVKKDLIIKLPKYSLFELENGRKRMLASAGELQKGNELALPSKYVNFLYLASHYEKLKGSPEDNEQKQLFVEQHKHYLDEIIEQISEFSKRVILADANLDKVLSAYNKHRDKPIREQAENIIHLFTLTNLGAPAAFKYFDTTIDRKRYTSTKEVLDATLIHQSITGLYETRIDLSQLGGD

“CGAAAGGUUUUGCACUCGAC / CGAAAGGTTTTGCACTCGACTGG / CCAGTCGAGTGCAAAACCTTTCG [PAM-SCANR sgRNA spacer ; PAM-SCANR protospacer + TGG PAM]” returned a binding signal (fraction of SpCas9 GFP+ cells) of 0.5.
